The results in this text go back to US20030125257A1 (published 2003).

Usually Kd stands for a measure of binding affinity in units of concentration. A higher Kd goes with a looser complex.

Square brackets hold non-standard residues; d marks the D form. Ends that are not written are not given here. Sta = CC(C)C[C@H](N)[C@@H](O)CC(=O)O

The target in the assay is purified full-length human BACE with six C-terminal His residues, expressed in Sf9 insect cells (human, UniProt P56817 46-501). As to the kind of experiment: radioligand equilibrium binding (Scatchard plot); no inhibitor.
Chain of purified full-length human BACE with six C-terminal His residues, expressed in Sf9 insect cells (P56817 other isoform, or with tags, fused parts or gaps): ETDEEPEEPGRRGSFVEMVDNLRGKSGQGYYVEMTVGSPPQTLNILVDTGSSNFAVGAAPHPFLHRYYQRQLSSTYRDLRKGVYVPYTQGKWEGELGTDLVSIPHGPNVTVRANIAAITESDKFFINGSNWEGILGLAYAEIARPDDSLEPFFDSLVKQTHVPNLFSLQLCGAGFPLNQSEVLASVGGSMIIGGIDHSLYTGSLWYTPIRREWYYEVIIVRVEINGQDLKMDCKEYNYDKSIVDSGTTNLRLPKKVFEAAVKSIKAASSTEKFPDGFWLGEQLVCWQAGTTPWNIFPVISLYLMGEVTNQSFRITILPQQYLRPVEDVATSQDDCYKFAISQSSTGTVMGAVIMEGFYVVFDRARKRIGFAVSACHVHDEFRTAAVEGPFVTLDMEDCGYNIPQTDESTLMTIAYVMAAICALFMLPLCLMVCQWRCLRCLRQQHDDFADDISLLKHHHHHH

EVN[Sta]VAE[Tyr(3H2)]-NH2 [tritiated Compound A (Glu-Val-Asn-Statine-Val-Ala-Glu-Tyr-NH2, iodine of Tyr(I2) exchanged for 3H)] gave a Kd of 0.025 µM.
